# Assay results as given in paper PMC4195440.
# Target: Siglec-10 receptor overexpressed on CHO cells (UniProt Q96LC7)
# Chain of UniProt Q96LC7 (Q96LC7 17-697): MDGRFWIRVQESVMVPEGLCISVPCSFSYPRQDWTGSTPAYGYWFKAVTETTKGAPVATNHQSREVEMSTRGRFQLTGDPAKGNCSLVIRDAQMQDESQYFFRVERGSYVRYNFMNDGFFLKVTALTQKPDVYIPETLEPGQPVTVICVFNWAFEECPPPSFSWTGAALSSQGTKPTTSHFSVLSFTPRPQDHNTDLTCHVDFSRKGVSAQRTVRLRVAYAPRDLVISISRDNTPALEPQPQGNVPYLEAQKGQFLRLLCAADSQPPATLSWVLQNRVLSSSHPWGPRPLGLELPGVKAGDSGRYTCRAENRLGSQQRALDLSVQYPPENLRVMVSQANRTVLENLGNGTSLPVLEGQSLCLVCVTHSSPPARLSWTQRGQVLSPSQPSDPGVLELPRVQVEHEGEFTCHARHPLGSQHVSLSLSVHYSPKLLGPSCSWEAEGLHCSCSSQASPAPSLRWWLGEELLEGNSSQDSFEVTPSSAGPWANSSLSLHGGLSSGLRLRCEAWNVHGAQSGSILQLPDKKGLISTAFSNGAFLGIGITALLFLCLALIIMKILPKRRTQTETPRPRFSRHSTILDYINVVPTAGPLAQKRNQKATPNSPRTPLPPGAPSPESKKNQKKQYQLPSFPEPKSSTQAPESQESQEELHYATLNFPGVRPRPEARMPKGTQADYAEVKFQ
substance,measurement,value
flagella (flagellin FlaA) of C. jejuni 11168H WT (from UniProt P56963 1-572) (natural protein),"IL-10 secretion (ELISA) of Siglec-10 transduced RAW264.7 cells against GFP control-transduced cells, infection with live 11168H WT, MOI 100, 24 hours",2 fold
